Patent US20220195407, “OPTIMIZATION OF ENGINEERED MEGANUCLEASES FOR RECOGNITION SEQUENCES” (Precision BioSciences, Inc., published 2022)
Numbering of substitutions follows the chain as printed.

Columns and labels:
Assay in all cases: cell_activity; CHO iGFFP reporter
LOX 3-4m.1153 = biological target: T1, LOX 3-4m.1153 (artificial (I-CreI derived))
T1 chain: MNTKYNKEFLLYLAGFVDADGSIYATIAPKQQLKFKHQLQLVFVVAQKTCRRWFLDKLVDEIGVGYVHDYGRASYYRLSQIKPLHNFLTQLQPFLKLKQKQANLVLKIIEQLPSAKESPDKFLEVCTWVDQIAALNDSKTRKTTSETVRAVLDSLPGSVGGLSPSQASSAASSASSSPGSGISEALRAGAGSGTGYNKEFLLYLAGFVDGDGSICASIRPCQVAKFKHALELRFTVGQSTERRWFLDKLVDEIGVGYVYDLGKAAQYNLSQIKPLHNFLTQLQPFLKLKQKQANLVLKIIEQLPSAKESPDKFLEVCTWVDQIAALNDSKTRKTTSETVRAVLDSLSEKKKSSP
Text: (§1) A CHO cell reporter system (see WO/2012/167192, FIG. 3) was used to determine whether the engineered meganucleases generated in these studies could recognize and cleave the modified LOX 3-4 recognition sequences in Table 87. To perform the assay, a pair of CHO cell reporter lines were produced, which carried a non-functional Green Fluorescent Protein (GFP) gene expression cassette integrated into the genome of the cell. The GFP gene in each cell line was interrupted by a pair of recognition sequences such that intracellular cleavage of either recognition sequence by a meganuclease would stimulate a homologous recombination event resulting in a functional GFP gene. In both cell lines, one of the recognition sequences was derived from the LOX 3-4 recognition sequence (i.e., those sequences disclosed in Table 87), and the second recognition sequence was specifically recognized by a control meganuclease called “CHO 23/24.” CHO reporter cells comprising a recognition sequence derived from the LOX 3-4 recognition sequence and the CHO 23/24 recognition sequence are referred to herein as “test cells.”
(§2) Novel engineered meganucleases derived from the LOX 3-4x.109 meganuclease were prepared by making amino acid substitutions at one or more positions in the first subunit and one or more positions in the second subunit. These engineered meganucleases were then evaluated for cleavage of the LOX 3-4 recognition sequence modified to have an ACGT center sequence (SEQ ID NO: 136) in the CHO reporter assay according to Example 1.

LOX 3-4m.1158 = biological target: T2, LOX 3-4m.1158 (artificial (I-CreI derived))
T2 chain: T1 chain with C50R, Q80E, E241C, A265S
Text: as §1, §2

LOX 3-4m.1225 = biological target: T3, LOX 3-4m.1225 (artificial (I-CreI derived))
T3 chain: T1 chain with E241A, K263R
Text: as §1, §2

LOX 3-4m.1206 = biological target: T4, LOX 3-4m.1206 (artificial (I-CreI derived))
T4 chain: T1 chain with A19G, G210A, A264C, A265T
Text: as §1, §2

LOX 3-4m.1123 = biological target: T5, LOX 3-4m.1123 (artificial (I-CreI derived))
T5 chain: T1 chain with K48S, C50R, Q80E, S239H, E241K, E252Q, K263R, A264I, A265T, K330H
Text: as §1
as §2, with “ACGC” for “ACGT”, “90)” for “136)”

LOX 3-4m.1069 = biological target: T6, LOX 3-4m.1069 (artificial (I-CreI derived))
T6 chain: T1 chain with C50R, G71R, S239K, K263R, A264V, Q271E, K330R
Text: as §1
as §2, with “ACGC” for “ACGT”, “90)” for “136)”

LOX 3-4m.1125 = biological target: T7, LOX 3-4m.1125 (artificial (I-CreI derived))
T7 chain: T1 chain with A19G, C50R, G210A, S239L, K263R, A264V
Text: as §1
as §2, with “ACGC” for “ACGT”, “90)” for “136)”

LOX 3-4m.1052 = biological target: T8, LOX 3-4m.1052 (artificial (I-CreI derived))
T8 chain: T1 chain with C50R, S239K, E241S, G262K, K263R, A264I, K330N
Text: as §1
as §2, with “ACGC” for “ACGT”, “90)” for “136)”

LOX 3-4m.1941 = biological target: T9, LOX 3-4m.1941 (artificial (I-CreI derived))
T9 chain: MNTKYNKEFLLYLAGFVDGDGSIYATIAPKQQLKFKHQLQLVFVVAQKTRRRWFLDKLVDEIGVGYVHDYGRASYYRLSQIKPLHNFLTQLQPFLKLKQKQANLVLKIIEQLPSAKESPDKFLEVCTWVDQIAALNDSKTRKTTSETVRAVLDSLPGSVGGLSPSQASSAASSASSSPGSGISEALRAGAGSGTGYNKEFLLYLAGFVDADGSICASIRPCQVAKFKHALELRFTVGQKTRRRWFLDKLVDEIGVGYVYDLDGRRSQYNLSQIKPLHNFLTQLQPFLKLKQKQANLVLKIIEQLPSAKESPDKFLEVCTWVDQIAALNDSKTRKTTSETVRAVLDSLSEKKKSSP
Text: as §1
(§3) Novel engineered meganucleases derived from the LOX 3-4x.109 meganuclease were prepared by making amino acid substitutions at one or more positions in the first subunit and one or more positions in the second subunit. In addition, an R residue was inserted following position 264, which corresponds to position 73 of wild-type I-CreI.

LOX 3-4m.1947 = biological target: T10, LOX 3-4m.1947 (artificial (I-CreI derived))
T10 chain: T9 chain
Text: as §1, §3

LOX 3-4m.1946 = biological target: T11, LOX 3-4m.1946 (artificial (I-CreI derived))
T11 chain: T9 chain
Text: as §1, §3

LOX 3-4m.1876 = biological target: T12, LOX 3-4m.1876 (artificial (I-CreI derived))
T12 chain: T9 chain
Text: as §1, §3

B1: LOX 3-4 ACGT (dsDNA)
DNA 1: GTATAGCATACGTTATACGAAG
DNA 2: CTTCGTATAACGTATGCTATAC
activity (LOX 3-4m.1153): 10.3 % GFP | activity (LOX 3-4m.1158): 9.19 % GFP | activity (LOX 3-4m.1225): 10.6 % GFP | activity (LOX 3-4m.1206): 9.84 % GFP

B2: LOX 3-4 ACGC (dsDNA)
DNA 1: GTATAGCATACGCTATACGAAG
DNA 2: CTTCGTATAGCGTATGCTATAC
activity (LOX 3-4m.1123): 9.56 % GFP | activity (LOX 3-4m.1069): 10.3 % GFP | activity (LOX 3-4m.1125): 10.4 % GFP | activity (LOX 3-4m.1052): 9.34 % GFP

B3: LOX 3-4 ACGG (dsDNA)
DNA 1: GTATAGCATACGGTATACGAAG
DNA 2: CTTCGTATACCGTATGCTATAC
activity (LOX 3-4m.1941): 10.1 % GFP | activity (LOX 3-4m.1947): 10.5 % GFP | activity (LOX 3-4m.1946): 10.8 % GFP | activity (LOX 3-4m.1876): 9.6 % GFP
